Target: T1, His-PKM2 (human, UniProt P14618 1-531)
T1 construct: Pyruvate kinase M2 (PKM2), human cDNA cloned into pET28a(+); also called His-tagged-PKM2; source: E. coli BL21, purified (Ni–agarose beads); not shown: His-tag, N-terminal, kept
Experiment: pull-down; in vitro binding of His-PKM2 (2.5 μg) and GST-VDAC3, Ni–NTA agarose, western blot with anti-GST or anti-His antibody
Settings: both partners purified

T1 sequence (P14618 whole entry): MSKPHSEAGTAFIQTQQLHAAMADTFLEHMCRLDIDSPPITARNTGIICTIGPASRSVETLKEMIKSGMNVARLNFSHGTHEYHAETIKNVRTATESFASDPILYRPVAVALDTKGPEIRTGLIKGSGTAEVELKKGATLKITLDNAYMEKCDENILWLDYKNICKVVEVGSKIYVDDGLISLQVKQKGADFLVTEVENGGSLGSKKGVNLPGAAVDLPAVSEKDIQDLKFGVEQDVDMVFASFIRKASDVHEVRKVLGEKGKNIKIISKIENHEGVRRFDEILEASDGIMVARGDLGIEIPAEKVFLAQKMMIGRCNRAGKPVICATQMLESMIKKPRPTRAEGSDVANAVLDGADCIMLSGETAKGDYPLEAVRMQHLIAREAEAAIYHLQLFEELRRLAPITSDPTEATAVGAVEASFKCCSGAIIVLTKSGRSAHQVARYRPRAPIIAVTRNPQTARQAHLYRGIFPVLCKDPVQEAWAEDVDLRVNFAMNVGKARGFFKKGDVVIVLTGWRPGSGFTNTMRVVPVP

B1: GST-VDAC3 (natural protein, human, UniProt Q9Y277 1-283, looked up)
chain: MCNTPTYCDLGKAAKDVFNKGYGFGMVKIDLKTKSCSGVEFSTSGHAYTDTGKASGNLETKYKVCNYGLTFTQKWNTDNTLGTEISWENKLAEGLKLTLDTIFVPNTGKKSGKLKASYKRDCFSVGSNVDIDFSGPTIYGWAVLAFEGWLAGYQMSFDTAKSKLSQNNFALGYKAADFQLHTHVNDGTEFGGSIYQKVNEKIETSINLAWTAGSNNTRFGIAAKYMLDCRTSLSAKVNNASLIGLGYTQTLRPGVKLTLSALIDGKNFSAGGHKVGLGFELEA
notes: VDAC3, human cDNA cloned into pGEX-4T-1; also called GST-tagged-VDAC3; source: E. coli BL21, purified (GST agarose beads); the pull-down method also calls it in vitro translated; not shown: GST, N-terminal, kept
Question: Does B1 bind?
Answer: binds

Reference: publication PMC6382874, “Succinylation-dependent mitochondrial translocation of PKM2 promotes cell survival in response to nutritional stress” (Cell Death & Disease, 2019)
